From publication PMC8494340, “Enhancers with cooperative Notch binding sites are more resistant to regulation by the Hairless co-repressor” (PLoS Genetics, 2020)

Target: T1, Drosophila Su(H) (aa 98–523) (Drosophila, UniProt P28159 98-523)
T1 construct: Suppressor of Hairless, Su(H), Drosophila, residues 98-523; also called Suppressor of Hairless; CSL transcription factor
Experiment: native gel or EMSA; purified proteins mixed with fluorescently labelled 2xCSL17 and 1xSPS15 DNA probes, room temperature 20 minutes; Su(H) 2.5 to 160 nM, 2 μM Hairless or NICD/Mam; the protein complexes are seen bound to the DNA probe; band intensities fitted to a 2-site equilibrium model
Settings: both partners purified

T1 sequence (P28159 98-523): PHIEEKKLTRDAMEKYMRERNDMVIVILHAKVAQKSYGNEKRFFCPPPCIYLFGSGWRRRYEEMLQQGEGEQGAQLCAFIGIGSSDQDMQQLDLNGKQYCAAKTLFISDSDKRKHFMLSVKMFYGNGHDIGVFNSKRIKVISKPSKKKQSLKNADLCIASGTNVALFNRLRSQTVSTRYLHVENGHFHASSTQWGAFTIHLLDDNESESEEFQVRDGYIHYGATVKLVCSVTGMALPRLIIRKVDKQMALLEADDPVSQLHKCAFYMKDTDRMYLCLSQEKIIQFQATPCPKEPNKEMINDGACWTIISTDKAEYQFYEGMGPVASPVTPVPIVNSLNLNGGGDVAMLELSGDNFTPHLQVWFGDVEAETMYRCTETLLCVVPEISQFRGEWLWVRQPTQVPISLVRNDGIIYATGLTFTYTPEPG

Row | binding result | Binder
1 | binds | Drosophila Mastermind (aa 87–307) (domain or fragment, UniProt P21519 87-307, looked up, Mastermind, Drosophila, residues 87-307; also called Mam; MAM) PYNANLGATGGIAGITGGNGAGGPTNPGAVPTAPGDTMPTKRMPVVDRLRRRMENYRRRQTDCVPRYEQAFNTVCEQQNQETTVLQKRFLESKNKRAAKKTDKKLPDPSQQHQQQQHQQQQQHQQHQQHQQAQTMLAGQLQSSVHVQQKFLKRPAEDVDNGPDSFEPPHKLPNNNNNSNSNNNNGNANANNGGNGSNTGNNTNNNGNSTNNNGGSNNNGSE
2 | binds | Drosophila Notch intracellular domain, NICD (aa 1763–2142) (domain or fragment, UniProt P07207 1763-2142, looked up, Notch, Drosophila, intracellular domain, residues 1763-2142) VLSTQRKRAHGVTWFPEGFRAPAAVMSRRRRDPHGQEMRNLNKQVAMQSQGVGQPGAHWSDDESDMPLPKRQRSDPVSGVGLGNNGGYASDHTMVSEYEEADQRVWSQAHLDVVDVRAIMTPPAHQDGGKHDVDARGPCGLTPLMIAAVRGGGLDTGEDIENNEDSTAQVISDLLAQGAELNATMDKTGETSLHLAARFARADAAKRLLDAGADANCQDNTGRTPLHAAVAADAMGVFQILLRNRATNLNARMHDGTTPLILAARLAIEGMVEDLITADADINAADNSGKTALHWAAAVNNTEAVNILLMHHANRDAQDDKDETPLFLAAREGSYEACKALLDNFANREITDHMDRLPRDVASERLHHDIVRLLDEHVPR
